Laboratory results published in publication PMC8315086 (2021).

Legend:
WT RBD-His = WT RBD-His (SARS-CoV-2, UniProt P0DTC2); assay: ELISA
[1] = molecular target: SARS-CoV-2 S1-His protein (SARS-CoV-2); assay: ELISA

B1: 2B11 monoclonal antibody (full-length human IgG1) (antibody, V domains shown)
VH: EVQLVESGGGLVQPGGSLRLSCAASEITVSSNYMNWVRQAPGKGLEWVSVIYSGGTTYYADSVKGRFTISRDNSENTLYLQMNSLRAEDTAVYYCARDLMEVGGMDVWGQGTTVTVSS
VL: LPVLTQPPSASGTPGQRVTISCSGSSSNVENDNVNWFQQQVPGSTPKLVIYNDRLRPSGVPDRFSGSKSGTSAYLAISGLQSEDEADYYCVAWDASLQSYVFGTGTKVTVL
**Q.** Which results are given for B1?
**A.** IC50 (WT RBD-His): 0.589 µg/mL; IC50 [1]: 0.383 µg/mL
